This passage reports Kd results from patent US20250161408A1, “PEPTIDIC INHIBITORS OF AMYLOID SELF- AND CROSS-ASSEMBLY” (published 2025).

Test [1] has as its target T1, Fluos-IAPP (human, UniProt P10997, N-terminal fluorescein).
T1 peptide: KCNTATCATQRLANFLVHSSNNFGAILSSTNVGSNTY
The test is described as follows: fluorescence spectroscopic titration of Fluos-IAPP (5 nM, pH 7.4) with the ACM; app. KD. On the procedure: On the right side of each figure panel, the corresponding binding curves are shown; data are means±SD from 3 binding curves. […] KDs (means±SD from 3 binding curves) are in Table 1.
(§1) Fluorescence spectroscopic studies were performed with a Jasco FP-6500 fluorescence spectrophotometer. Briefly, excitation was at 492 nm and spectra were measured between 500 and 600 nm. All titrations were performed in freshly made solutions of synthetic N-terminal fluorescently labeled peptide (5 nM) and various amounts of unlabeled peptide in 10 mM sodium phosphate buffer, pH 7.4 (1% HFIP) within 2-5 min following solution preparation. […] Apparent binding affinities (app. KDs) were estimated by using 1/1 binding models. However, due to the high self-assembly propensities of involved peptides more complex models might also apply. […] KDs are means (±SD) from three binding curves derived from three independent titration assays.

Test [2] deals with FITC-Aβ42 (Homo sapiens (Human), UniProt P05067, N-terminal fluorescein-isothiocyanate-β-Ala). The test is described as follows: fluorescence spectroscopic titration of FITC-Aβ42 (5 nM, pH 7.4) with the ACM; app. KD. Here is the method: Fluorescence spectroscopic studies were performed with a Jasco FP-6500 fluorescence spectrophotometer. Briefly, excitation was at 492 nm and spectra were measured between 500 and 600 nm. All titrations were performed in freshly made solutions of synthetic N-terminal fluorescently labeled peptide (5 nM) and various amounts of unlabeled peptide in 10 mM sodium phosphate buffer, pH 7.4 (1% HFIP) within 2-5 min following solution preparation. […] Apparent binding affinities (app. KDs) were estimated by using 1/1 binding models. However, due to the high self-assembly propensities of involved peptides more complex models might also apply.

Test [3] concerns the target T2, Fluos-Nle3-VF (N-terminal 5,6-carboxyfluorescein; X = norleucine (Nle); N-methyl on Val18 and Phe20).
T2 peptide: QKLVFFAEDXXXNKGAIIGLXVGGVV
Put plainly: self-assembly: fluorescence spectroscopic titration of Fluos-Nle3-VF (5 nM) with Nle3-VF; app. KD. On the procedure: as §1

Non-standard residues stand in square brackets, D forms with d. NMeF = CN[C@@H](Cc1ccccc1)C(=O)O; NMeL = CN[C@@H](CC(C)C)C(=O)O; NMeV = CN[C@H](C(=O)O)C(C)C; Nle = CCCC[C@H](N)C(=O)O

B1: Nle3-LF (peptide)
peptide: H-QK[NMeL]V[NMeF]FAED[Nle][Nle][Nle]NKGAIIGL[Nle]VGGVV-OH
SMILES: CCCC[C@H](NC(=O)[C@H](CC(=O)O)NC(=O)[C@H](CCC(=O)O)NC(=O)[C@H](C)NC(=O)[C@H](Cc1ccccc1)NC(=O)[C@H](Cc1ccccc1)N(C)C(=O)[C@@H](NC(=O)[C@H](CC(C)C)N(C)C(=O)[C@H](CCCCN)NC(=O)[C@@H](N)CCC(N)=O)C(C)C)C(=O)N[C@@H](CCCC)C(=O)N[C@@H](CCCC)C(=O)N[C@@H](CC(N)=O)C(=O)N[C@@H](CCCCN)C(=O)NCC(=O)N[C@@H](C)C(=O)N[C@H](C(=O)N[C@H](C(=O)NCC(=O)N[C@@H](CC(C)C)C(=O)N[C@@H](CCCC)C(=O)N[C@H](C(=O)NCC(=O)NCC(=O)N[C@H](C(=O)N[C@H](C(=O)O)C(C)C)C(C)C)C(C)C)[C@@H](C)CC)[C@@H](C)CC
As to B1, the results for the Kd in test [1] and in test [2] were 55.4 nM and 11.1 nM, respectively.

B2: F3-VF (peptide)
peptide: H-QKL[NMeV]F[NMeF]AEDFFFNKGAIIGL[Nle]VGGVV-OH
SMILES: CCCC[C@H](NC(=O)[C@H](CC(C)C)NC(=O)CNC(=O)[C@@H](NC(=O)[C@@H](NC(=O)[C@H](C)NC(=O)CNC(=O)[C@H](CCCCN)NC(=O)[C@H](CC(N)=O)NC(=O)[C@H](Cc1ccccc1)NC(=O)[C@H](Cc1ccccc1)NC(=O)[C@H](Cc1ccccc1)NC(=O)[C@H](CC(=O)O)NC(=O)[C@H](CCC(=O)O)NC(=O)[C@H](C)NC(=O)[C@H](Cc1ccccc1)N(C)C(=O)[C@H](Cc1ccccc1)NC(=O)[C@H](C(C)C)N(C)C(=O)[C@H](CC(C)C)NC(=O)[C@H](CCCCN)NC(=O)[C@@H](N)CCC(N)=O)[C@@H](C)CC)[C@@H](C)CC)C(=O)N[C@H](C(=O)NCC(=O)NCC(=O)N[C@H](C(=O)N[C@H](C(=O)O)C(C)C)C(C)C)C(C)C
As to B2, the Kd in test [1] is 15 nM; in test [2], 161 nM.

B3: F3-LF (peptide)
peptide: H-QK[NMeL]V[NMeF]FAEDFFFNKGAIIGL[Nle]VGGVV-OH
SMILES: CCCC[C@H](NC(=O)[C@H](CC(C)C)NC(=O)CNC(=O)[C@@H](NC(=O)[C@@H](NC(=O)[C@H](C)NC(=O)CNC(=O)[C@H](CCCCN)NC(=O)[C@H](CC(N)=O)NC(=O)[C@H](Cc1ccccc1)NC(=O)[C@H](Cc1ccccc1)NC(=O)[C@H](Cc1ccccc1)NC(=O)[C@H](CC(=O)O)NC(=O)[C@H](CCC(=O)O)NC(=O)[C@H](C)NC(=O)[C@H](Cc1ccccc1)NC(=O)[C@H](Cc1ccccc1)N(C)C(=O)[C@@H](NC(=O)[C@H](CC(C)C)N(C)C(=O)[C@H](CCCCN)NC(=O)[C@@H](N)CCC(N)=O)C(C)C)[C@@H](C)CC)[C@@H](C)CC)C(=O)N[C@H](C(=O)NCC(=O)NCC(=O)N[C@H](C(=O)N[C@H](C(=O)O)C(C)C)C(C)C)C(C)C
Take B3: the results for the Kd in test [1] and in test [2] were 37.6 nM and 431 nM, respectively.

B4: L3-VF (peptide)
peptide: H-QKL[NMeV]F[NMeF]AEDLLLNKGAIIGL[Nle]VGGVV-OH
SMILES: CCCC[C@H](NC(=O)[C@H](CC(C)C)NC(=O)CNC(=O)[C@@H](NC(=O)[C@@H](NC(=O)[C@H](C)NC(=O)CNC(=O)[C@H](CCCCN)NC(=O)[C@H](CC(N)=O)NC(=O)[C@H](CC(C)C)NC(=O)[C@H](CC(C)C)NC(=O)[C@H](CC(C)C)NC(=O)[C@H](CC(=O)O)NC(=O)[C@H](CCC(=O)O)NC(=O)[C@H](C)NC(=O)[C@H](Cc1ccccc1)N(C)C(=O)[C@H](Cc1ccccc1)NC(=O)[C@H](C(C)C)N(C)C(=O)[C@H](CC(C)C)NC(=O)[C@H](CCCCN)NC(=O)[C@@H](N)CCC(N)=O)[C@@H](C)CC)[C@@H](C)CC)C(=O)N[C@H](C(=O)NCC(=O)NCC(=O)N[C@H](C(=O)N[C@H](C(=O)O)C(C)C)C(C)C)C(C)C
For B4, the Kd was 77.3 nM in test [1] and 38 nM in test [2].

B5: L3-LF (peptide)
peptide: H-QK[NMeL]V[NMeF]FAEDLLLNKGAIIGL[Nle]VGGVV-OH
SMILES: CCCC[C@H](NC(=O)[C@H](CC(C)C)NC(=O)CNC(=O)[C@@H](NC(=O)[C@@H](NC(=O)[C@H](C)NC(=O)CNC(=O)[C@H](CCCCN)NC(=O)[C@H](CC(N)=O)NC(=O)[C@H](CC(C)C)NC(=O)[C@H](CC(C)C)NC(=O)[C@H](CC(C)C)NC(=O)[C@H](CC(=O)O)NC(=O)[C@H](CCC(=O)O)NC(=O)[C@H](C)NC(=O)[C@H](Cc1ccccc1)NC(=O)[C@H](Cc1ccccc1)N(C)C(=O)[C@@H](NC(=O)[C@H](CC(C)C)N(C)C(=O)[C@H](CCCCN)NC(=O)[C@@H](N)CCC(N)=O)C(C)C)[C@@H](C)CC)[C@@H](C)CC)C(=O)N[C@H](C(=O)NCC(=O)NCC(=O)N[C@H](C(=O)N[C@H](C(=O)O)C(C)C)C(C)C)C(C)C
B5: the Kd in test [1] came to 143 nM; in test [2], 2.6 nM.

B6: Nle3-VF (peptide)
peptide: H-QKL[NMeV]F[NMeF]AED[Nle][Nle][Nle]NKGAIIGL[Nle]VGGVV-OH
SMILES: CCCC[C@H](NC(=O)[C@H](CC(=O)O)NC(=O)[C@H](CCC(=O)O)NC(=O)[C@H](C)NC(=O)[C@H](Cc1ccccc1)N(C)C(=O)[C@H](Cc1ccccc1)NC(=O)[C@H](C(C)C)N(C)C(=O)[C@H](CC(C)C)NC(=O)[C@H](CCCCN)NC(=O)[C@@H](N)CCC(N)=O)C(=O)N[C@@H](CCCC)C(=O)N[C@@H](CCCC)C(=O)N[C@@H](CC(N)=O)C(=O)N[C@@H](CCCCN)C(=O)NCC(=O)N[C@@H](C)C(=O)N[C@H](C(=O)N[C@H](C(=O)NCC(=O)N[C@@H](CC(C)C)C(=O)N[C@@H](CCCC)C(=O)N[C@H](C(=O)NCC(=O)NCC(=O)N[C@H](C(=O)N[C@H](C(=O)O)C(C)C)C(C)C)C(C)C)[C@@H](C)CC)[C@@H](C)CC
B6: the Kd in test [1] turned out to be 69.5 nM; in test [2], 14.5 nM; in test [3], 51.9 nM.
